Test: yeast display, Sf9 membrane polyspecificity reagent, FACS + sequencing; frameworks hold sequencing errors
Method in brief: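 Genes from sorted yeast were amplified by colony PCR, read by MiSeq 2 × 250 sequencing and filtered on CDR length. These cells carried a synthetic nanobody library in Saccharomyces cerevisiae BJ5465 and were sorted by FACS into low and high (top ~1%) gates on anti-HA and streptavidin fluorescence. Polyreactivity is labelled according to the gate of origin.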

Row | Sequence | polyreactivity (PSR sort gate)
1 | QVQLVESGGGLVQAGGSLRLNCAASGITFGYNAMGWYRQPPGKERELVAAISSRGGSTYYADSVKGRFTISRDNAKNTVYLQMNSMKPEDTAVYYCAKDGGPGRYAWYWPVRMGYWGQGTQVTVSS | high polyreactivity
2 | QVQLVESGGGLVQAGGSLRLSCAASGSIFKYNDMGWYRQAPGKERELVAAIRLGGGSTSYADSVKGRFTISRDNAKNTVYLQMNSLKPEDTAVYYCAAEINVGWLGSYDYWGQGTQVTVSS | low polyreactivity
3 | QVQLVESGGGLVQAGGSLRLSCAASGIIFVWNAMGWYRQAPGKERALVAAITNGGSTYYADSVKGRFTISRDNAKTTVYLQMTSLKPEETAVDYCHVRYFFRFRDDYWGQGTQVTVSS | low polyreactivity
4 | QVQLVESGGGLVQAGGSLRLRCAASGSNFNPYAMGWYRQAPGKERELVAAINSRGGSTYYADSVKGRFTISRDNANNTVYLQMNSLKPQDTAVYYCAARTRRRTSAYEYWGQGTQVTVSS | high polyreactivity
5 | QVQLEESGGGLVQAGGSLRLSCAATGSTFGYAMGWYSQATGKEGEWVAALTSTGGSTYYADSLKGRFTISRDKAKNTVDLQMNSLKPYDTAVYYCAADAYWIRSRFLYRIRYNYWGQGTQVTVSS | high polyreactivity
6 | QVQLVESGGGLVQAGGSLRLSCAASGFTFYFYAMGWYRQAPGKERELVAAITGGTSTYYADSVKGRFTISRDNAKNTVYFQRNSLKPEDTSVYYCAAGYLDVLWLLDLLQLYGYWGQGNQVTVSS | low polyreactivity
7 | QVQLVESGGGLVQAGGSLRLSCAPSGSTFARNAMGWYRQAPGKERDLVAAIATSGGRTYYADTVKGRFTISRDIAKNTVYLQMNSLKAEDTAVYYCAAAFSLGMYWGQGTQVTVSS | high polyreactivity
8 | QVQLVESGGGLVQAGGSLRLSCAASGIIFVLYDMGWYRPAPGKERELVAAIDKSGGSTYYADSVKGRFTISRDNAKNTVYLQMNSLKPEDTAVYYCNARVVWRNPSYLKSSYDYWGQGTQVTVSS | low polyreactivity
9 | QVQHVESRGGLVQAGGSLRLSCAASGITLPKYAMGCYRQAPGKERELAAAISRRGGITYYADSVKGRFTISRDNAKNSVYLQMNSQKPEDTAVYYCAADRTDTRGFDYWGQGTQVTVSS | high polyreactivity
10 | QVQLVESGGGLVQAGCSLLLSCAASGRLFSLNAMGWYRQAPGKERELVAAITRSAASTHYADSEKGRFTISRDNAKNTVYLQMNSLKPEDTAVYYCAARFWYDYRHYDYWGQGTEVTVSS | low polyreactivity
11 | QVQLVESGGGLVQAGGSLRLSCAASGRTFDRYAMGWYRQAPGKEREFVAVISSSGVRTNYADSVKGRFTISRDNAKNTVYFQMNSLKPEDTAVYYCAAVFWFRSLSGYIYDYWGQGTQVTVST | low polyreactivity
12 | QVQLVESGGGLVQAGGSLRLSCAASGRIFRYNAMGWYRQAPGKERELVAAISWSGGSTYYADSVKGRFTISRDNAKNTVYLQMNSLKPEDTAVYYCNARYRYSVTGYDYWGQGTQVTVSS | high polyreactivity
13 | QVQLVESGGGLVQAGGSLRLSCAASGRTFGVNAMGWYRQAPGKERELVAAISRSTGSTYYADSVKGRFTISRDNAKNTVYLQMNSLKPEDTAVYYCARDVYYRGYKYGYWGQGTQVTVSS | high polyreactivity
14 | QVQLVESGGGIVQAGGSLRLSCAASGFIISPNAMGWYRHAPGKEREFVAAIRYSGTSTSYADSVKGRFTISRDNGKNTVYLQMNSLKPEDTAVYYCAAQYRQRTGMYYWGQGSQVTVSS | high polyreactivity
15 | QVQLVESGGGLVQAGGSLRLSCAASGIIFAYYAMGWYRQAPGKERELVAAISWRGGSTYYADSVKGRFTISRDYAKNTVYLQMNSLKPEDTAVYYCAAAYLKKPYDYWGQGTQVTVSS | high polyreactivity
16 | QVQLVESGGGLDQAGVSLRLSSAASGSTFVRNAMGCYRQAPGKEREWVAAINIGGSTYYADSVKGRFTISRDNAKNTVYLQMNSLKPEDTAVYYFAARIKYRYDWGQGTQVTVSS | low polyreactivity
17 | QVQLVESGGGLVQAGGSLRLSCAASGITFDRNVMGWYRQAPGTERELVAAISKSGGRTYYADSVKGRFRISRDNAKNTDYLQLNSLKPEDTAVYYCNADVYSRKSLHQYEYWGQGTQVTVSS | high polyreactivity
18 | QVQLVESGGGLVQAGGSLRLSCAASGFTFPRYAMGWYRQAPGKERELVAAITTSVGNTYYADSVKGRFTISRDNAKNTVYLQMNSLKPEDTAVYYCSTIYDHFDYWGQGTQVTVSS | low polyreactivity
19 | QVQLVESGGGLVQAGGSLRLSCAPSGITFLHYAMGWYRQAPGKERELVAAITRGGITYYADSVKGRFTISRDNAKNSVYLLMNSLKPEDTAVYYCNALGFGSNYDYWGQGTQVTVSS | high polyreactivity
20 | QVQLVESGGGLVQAGGSLRLSCAASGSIFRKYPMGWYRQAPGKDTELVAAISKRGGSTYYADSVKGRFTISRDNAKNTVYLQMNSLKPEDTAVYYFNALRRYVSVRPTKSDYWGQGTQVTVSS | high polyreactivity
21 | QVQLVESGGGLDQAGGSLRLSCAASGRISGYYDMVWYRQAPGKERELVATITSDGGTNYADSVKGRFTISRDNAKNTVYLQMNSLKPEDTAVYDCAAYGWYTKWHFAYGYWGQGTQVTVSS | low polyreactivity
22 | QVQLVESGGGLVQAGGSLRLSCAASGGTFYLYAMGWYRQAPGKERELVAAISRSGGITYYADSVKGRFTISRDNAKNTVYLQMNSLKPEDTAVYYCDAAALSRYRLQEGYYWGQGTQVTVSS | high polyreactivity

Row | Sequence | polyreactivity (PSR sort gate)
23 | QVQLVDSGGGLVQAGGSLRLSCAASGRTCYTNAMGWYRQAPGKERELVAAINRSGGSTYYADSVKGRFTISRDNAKNTVYLQMNSLKPEDTAVYYCNKAFTHTKYLSPIAYEYGYWGQGTQVTVSS | low polyreactivity
24 | QGQLVESGGGLVQAGGSLRLSCAASGFTFKFYAMGWYRQAPGKEREFVAAISGSGGSTYYAHSVKGRFTISRDNAKNTVYLQMNSLKPEDTAVYYCAAEVPGKPYGRSRYSFRHDYWGQGTQVTVSS | low polyreactivity
25 | QVQHVESGGGLVQAGGSLRLSCAASGSIFVNNAMGWYRQAPGKERELVAAIRRSGGNTYYADSVKGRFTISRDNAKNTVYLQMNSLKPEDTAVYYCNVVRRADSIRAKSRDYWGQGTQVTVSS | high polyreactivity
26 | QVQLVESGGGLVQAGGSLRLSCASSGSIFEANAMGWYRQAPGIESELVAAISTTGGNTYYADSVKGRFTISRDNAKNTVYLQMNSLKPEDTAVYYCAADPSQPRIDSSNYDYWGQGTQVTVSS | low polyreactivity
27 | QVQLVESGGGLVQAGGSLRLSCAASGSTFYTYAMGWYRQAPGKERELVAAITSGGSTYYADSVKGRFTISRDNAKNTVYLQMNSLKPEDTAVYYCAARPYPHSAYEGDYWGRGTQVTVSS | low polyreactivity
28 | QVQLVESGGGLVQAGGSLRLSCAASGRTFVPYAMGWYRQAPGKERELVAAINSGGSTYYADSVKGRFTISRDNAKNTVYLQMNSLKPEDTAVYYCAAEYWNSRFSYAYGYWGQGTQVTVSS | high polyreactivity
29 | QVQLVESGGGLVQAGGSLRLSCAASGRIFDIYAMGWYRQAPGKERELVASISWSGDSTYYADSVKGRFTISRDNAKNTVYLEMNSLKPEDTAVYYCAAEGEDTEGYDYDYWGQGTQVTVSS | low polyreactivity
30 | QVHLVESGGGLVQAGGSLRLSCAASGSIFSGNAMGWYRQAPGKERELVAAITSSGGNTYYADSVKGRFTISRDNAKNTVYLQMNSLKPADTAVYYCAADGVYWRWYLYTFWMDYWGQGTQVTVSS | low polyreactivity
31 | QVQLVESGGGLVQAGGSLRLSCAASGFIFWTYAMGWYRQAPGKERELVARISWSGGSTYYADSVKGRFTISRDNAKNTVYLQMNSLKPEDTAVYYCARLATLYESIEYDYWGQGTQVTVSS | low polyreactivity
32 | QVQLVESGGGLVQAGGSLRLSCAASGSTFTPYGMGWYRKAPGKERELVAAITVSGGRTYDADSVKGRFTISRDNAKNTVYLQMNSLKPEDTAVYYCAAVYLRGDGEYDYWGQGTQVTVSS | low polyreactivity
33 | QVQLVESGGGLVQAGGSLRLSCASSVIILVQYVMGWYIQAPGKERELVASISRTGGSTNYADSVKGRFTISRDNAKNTVYLQMNSLKPEDTAVYYCSAKKRKIAGVGGDYWGQGTQVTVSS | high polyreactivity
34 | QVQLVESGGGLVQAGGSLRLSCAASGSIFSTYAMGWYRQAPGKERELVAAISSSSGSTYYADSVKGRFTISRDNAKNTVYLQMNSLKPEDTAVYYCAAAYSQYSTSYYYWGQGTQVTVSS | high polyreactivity
35 | QVQLVESGGGLVQAGGSLRLSCAASGYTFHGYAMGWYRQAPGKERELVAVITQRGGSTSYADSVKGRFTISRDNAKNTVYLQMNSLKPEDTAVYYCEYYYWGQGTQVTVSS | low polyreactivity
36 | QVQLVESGGGLVQAGGSLRLSCAASGRIFYGNTMGWYRQAPGKERELVAAITIGDSTNYADSVKGRFTISRDNAKNTVYLQMNSLKPEDTEVYFCAKRNWWGYYKYDYWGQGTQVTVSS | low polyreactivity
37 | QVQLEESGRGLVQAGGSLRLSCAASGFTFRIYAMGWYRQAPGKGREFVAAITWSSGSTYYADSVKGRFTISRDNAKITVYLQMNSLKPEDTAVYYCAATYRFFPPRYYYWGQGTQVTVSS | high polyreactivity
38 | QVQLVESGGGLVQAGGSLRLSCAASGLTFNRYAMGWYRQARGKERELVAAISINGGSTYYADSVKGRFTISRDNAKNTVYLQMNSLKPEDTAVYYCAARRVQRPSTYGYWGQGTQVTVSS | high polyreactivity
39 | QVQLVESGGGLFQAGGSLRLSCAASGSTFQYNAMGWYRQAPGKERELVARITSGGRTDYADSVKGRFTITRDNAKNTVYLQMNSLKPEDTAVYYCAARYGYRGSTKYLSKPFYYWGQGTQVNVSS | high polyreactivity
40 | QVQLVESGGGLVQAGGSLRLSCAASGRTFWDYMGWYRQAPGKERELVATITSSGGSTYYADSVKGRFTISRDNAKNTVYLQMNSLKPEDTAVYYCNADWYLWSTFAQGYGYWGQGTQVTVSS | high polyreactivity
41 | QVQLVESGGGLVQAGGSLRLSCAASGSIFTNNAMGWYRQAPGKERELVAGISFRGSSTYADSVKGRFTISRDNAKNTVYLQMNSLKPEDTAVYYCAAEWFDLEDDYWGQGTQVTVSS | low polyreactivity
42 | QVQLEESGGCLVQAGGSLRLSCAASGSIFRIYAMGWYRQAPGKEREFVAAISSRGGRTYYAYSVKGRFTISRDNAKNTVYLQMNSLKPEDTAVYYCNARATRGSYYEYEYWGQGTQVTVSS | high polyreactivity
43 | QVQLGESGGRLVQAGGSLRLSCAASGRTIVINAMGWYRKEPGKERELVAAISRGGSTNYADSVKGRFTISRDNAKNTVYLQMNRLKPEDTAVYYCKADYPNWWSPFDYWGQGTQVTVSS | low polyreactivity
